Changes are numbered by the printed parent chain. Numbers in names are those of the source. Where two headings read alike, the source gives them in different places.
B1: VSR-SN Fab (Fab, V domains shown)
VH: QVQLVQSGAEVKKPGSSVKVSCKASGYTFTSYRMHWVRQAPGQGLEWIGYIVPSRGYTEYNQKFKDKATITADESTNTAYMELSSLRSEDTAVYYCARGGGVFDYWGQGTLVTVSS
VL: DIQMTQSPSTLSASVGDRVTITCSASSSISYMHWYQQKPGKAPKLLIYTTSNLASGVPARFSGSGSGTEFTLTISSLQPDDFATYYCHQRSTYPLTFGQGTKVEVK
notes: also called VSR-SN in Fab; copies: 1 + 1
B2: NuhuTac (rehumanized anti-Tac) (antibody, V domains shown)
VH: B1 VH with Q1E, S16A, V52N, R55T, I70M, E74K, T76I, N77S
VL: EIVLTQSPATLSLSPGERATLTCSASSSISYMHWFQQKPGQAPRLLIYTTSNLASGIPARFSGSGSGTDYTLTISSLEPEDFAVYYCHQRSTYPLTFGQGTKVEIK
notes: VH on human framework R3.5H5G, VL on ka3d1; N-terminal Glu in VH; also called rehumanized antibody
B3: daclizumab VH and NuhuTacVL (antibody, V domains shown)
VH: B1 VH with V52N, R55T
VL: B2 VL
B4: NuhuTacVH with daclizumabVL (antibody, V domains shown)
VH: B1 VH with Q1E, S16A, V52N, R55T, I70M, E74K, T76I, N77S
VL: B1 VL
B5: daclizumab VH variant QRKFH (antibody, IgG1, name in Kabat numbering, V domains shown)
VH: B1 VH with V52Q, S54R, R55K, Y57F, E59H
VL: B1 VL
notes: VH library clone, soluble IgG1
B6: daclizumab VH variant RKGFE (antibody, IgG1, name in Kabat numbering, V domains shown)
VH: B1 VH with V52R, S54K, R55G, Y57F
VL: B1 VL
notes: as for B5
B7: daclizumab VH variant RKGFN (antibody, IgG1, name in Kabat numbering, V domains shown)
VH: B1 VH with V52R, S54K, R55G, Y57F, E59N
VL: B1 VL
notes: as for B5
B8: daclizumab VH variant RRGFE (antibody, IgG1, name in Kabat numbering, V domains shown)
VH: B1 VH with V52R, S54R, R55G, Y57F
VL: B1 VL
notes: as for B5
B9: daclizumab VH variant RRKFE (antibody, IgG1, name in Kabat numbering, V domains shown)
VH: B1 VH with V52R, S54R, R55K, Y57F
VL: B1 VL
notes: as for B5
B10: daclizumab VH variant SNKYL (antibody, IgG1, name in Kabat numbering, V domains shown)
VH: B1 VH with V52S, S54N, R55K, E59L
VL: B1 VL
notes: as for B5
B11: daclizumab VL S29R-S31T (antibody, IgG1, V domains shown)
VH: B1 VH with V52N, R55T
VL: B1 VL with S28R, S30T
notes: Soluble IgG1/kappa; also called R29T31

Legend:
[1] = biological target: T1, recombinant human CD25 (IL2-Rα) (human, UniProt P01589 22-213, limits assumed); experiment: competition ELISA: binding of biotinylated wild type daclizumab IgG to CD25 in the presence of titrated competitor Fab, O.D. 415
T1 construct: Bought recombinant soluble protein; also called IL2 receptor α chain; recombinant soluble human CD25
T1 sequence (looked up): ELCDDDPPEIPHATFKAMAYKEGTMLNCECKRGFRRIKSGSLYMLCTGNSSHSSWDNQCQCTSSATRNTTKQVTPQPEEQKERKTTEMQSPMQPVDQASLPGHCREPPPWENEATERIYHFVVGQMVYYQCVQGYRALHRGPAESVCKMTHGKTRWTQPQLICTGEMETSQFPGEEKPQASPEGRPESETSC
Procedure: Wells of 96-well ELISA plates (Nunc-Immuno MaxiSorp plates, Nalge Nunc, Rochester, N.Y.) were coated with 100 μL of 0.2 μg/mL CD25 (Pepro Tech Inc., Rocky Hill, N.J.) in 0.2 M sodium carbonate-bicarbonate buffer (pH 9.4, Pierce, Rockford, Ill.) overnight at 4° C. After washing with Wash Buffer, wells were blocked with 200 μL of Superblock Blocking Buffer (Pierce, Rockford, Ill.) for 30 min and then washed. […] The plate was then washed with washing buffer three times. After washing, 100 μL of 1 μg/mL HRP-conjugated Streptavidin (Pierce) diluted in ELISA buffer was added to each well. After 30 minutes of incubation at room temperature, plates were washed and bound antibodies were detected by addition of ABTS substrate (Kirkegaard & Perry Laboratories, Gaithersburg, Md.). […] Binding inhibition curves were fitted using nonlinear regression with the software [sequence]

[2] = biological target: T1, recombinant human CD25 (IL2-Rα); experiment: ELISA competition assay on CD25 (format of Section 6.3.1.1: competitor antibody titrated against biotinylated daclizumab on plate-coated CD25), OD415
Procedure: (§1) Wells of 96-well ELISA plates (Nunc-Immuno MaxiSorp plates, Nalge Nunc, Rochester, N.Y.) were coated with 100 μL of 0.2 μg/mL CD25 (Pepro Tech Inc., Rocky Hill, N.J.) in 0.2 M sodium carbonate-bicarbonate buffer (pH 9.4, Pierce, Rockford, Ill.) overnight at 4° C. After washing with Wash Buffer, wells were blocked with 200 μL of Superblock Blocking Buffer (Pierce, Rockford, Ill.) for 30 min and then washed. […] The plate was then washed with washing buffer three times. After washing, 100 μL of 1 μg/mL HRP-conjugated Streptavidin (Pierce) diluted in ELISA buffer was added to each well. After 30 minutes of incubation at room temperature, plates were washed and bound antibodies were detected by addition of ABTS substrate (Kirkegaard & Perry Laboratories, Gaithersburg, Md.). […] PRISM (GraphPad, San Diego) and reported as IC₅₀ wild type/IC₅₀ mutant (fold improvement over wild type control).

[3] = biological target: T1, recombinant human CD25 (IL2-Rα); experiment: as above; remark: listed apart in the source
Procedure: as §1

[4] = biological target: T1, recombinant human CD25 (IL2-Rα); experiment: competitive ELISA on plate-coated CD25; competitor biotinylated daclizumab
Procedure: as §1

[5] = biological target: T1, recombinant human CD25 (IL2-Rα); experiment: competition ELISA on plate-coated CD25; competitor biotinylated daclizumab
Procedure: as §1

Binder	fold affinity over the parental antibody [4] [fold]	also measured
B1	–	IC50 (read off the curve) [1]: ~30 nM
B2	–	EC50 [2]: 0.71 µg/mL; EC50 [3]: 0.49 µg/mL
B3	–	EC50 [3]: 1.18 µg/mL
B4	–	EC50 [3]: 0.47 µg/mL
B5	~10	–
B6	~10	–
B7	~10	–
B8	~10	–
B9	~10	–
B10	~10	–
B11	–	fold improvement in binding over daclizumab [5]: ~2 fold
